Results on 39 molecules are retold here after article PMC10681739, “High-throughput data and modeling reveal insights into the mechanisms of cooperative DNA-binding by transcription factor proteins”.

The data set concerns the target T1, ETS1 (Homo sapiens, UniProt P14921).
T1 sequence: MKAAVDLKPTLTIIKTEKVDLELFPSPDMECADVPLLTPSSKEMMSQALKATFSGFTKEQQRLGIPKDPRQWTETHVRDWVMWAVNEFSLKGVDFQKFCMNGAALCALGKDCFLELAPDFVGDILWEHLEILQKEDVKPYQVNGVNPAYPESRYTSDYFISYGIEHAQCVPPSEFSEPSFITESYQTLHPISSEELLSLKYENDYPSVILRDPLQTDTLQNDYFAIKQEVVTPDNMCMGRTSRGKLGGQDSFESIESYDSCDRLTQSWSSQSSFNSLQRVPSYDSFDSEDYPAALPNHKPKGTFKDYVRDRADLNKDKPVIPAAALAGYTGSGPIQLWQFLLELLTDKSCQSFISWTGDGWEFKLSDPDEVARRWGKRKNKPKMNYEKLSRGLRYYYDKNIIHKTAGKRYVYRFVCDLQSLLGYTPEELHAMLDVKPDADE
Description: gcPBM; 1 nM ETS1. To be noted: tags: N-terminal GST (pDEST15), kept (PMC6008103); label: surface-attached array probe.

B1: Table S2 C row 37 (dsDNA)
DNA 1: CTGGTGCAGAAAAAAACCACACAAGCCATTGGGTAG
DNA 2: CTACCCAATGGCTTGTGTGGTTTTTTTCTGCACCAG
For B1, the binding signal is 369 PBM fluorescence, median of replicate spots.

B2: Table S2 C row 75 (dsDNA)
DNA 1: AGCTCTGAGAATCATTGTGGCCACACTGTCATGGTC
DNA 2: GACCATGACAGTGTGGCCACAATGATTCTCAGAGCT
In the case of B2, the binding signal was 376 PBM fluorescence, median of replicate spots.

B3: Table S2 B row 3812 (dsDNA)
DNA 1: GAGTCGCTTCCGCTCCCGCCCCGCTCTCTGGCGTAG
DNA 2: CTACGCCAGAGAGCGGGGCGGGAGCGGAAGCGACTC
As for B3, the binding signal is 15300 PBM fluorescence, median of replicate spots.

B4: Table S2 C row 71 (dsDNA)
DNA 1: CTGGGTTGGATGACCTGCGGTGGAACAGATGGCTCC
DNA 2: GGAGCCATCTGTTCCACCGCAGGTCATCCAACCCAG
On to B4, for which the binding signal was 374 PBM fluorescence, median of replicate spots.

B5: Table S2 C row 144 (dsDNA)
DNA 1: ACCGTCAATCTCGACACCGCGGAGCACAATGCGTGC
DNA 2: GCACGCATTGTGCTCCGCGGTGTCGAGATTGACGGT
For the molecule B5, the binding signal is 352 PBM fluorescence, median of replicate spots.

B6: Table S2 C row 21 (dsDNA)
DNA 1: TTGCAGAGTTAGCTAGCCACAGGCAAGTCTCCATTG
DNA 2: CAATGGAGACTTGCCTGTGGCTAGCTAACTCTGCAA
For B6, the binding signal is 364 PBM fluorescence, median of replicate spots.

B7: Table S2 C row 57 (dsDNA)
DNA 1: CACAGAACTGACCAGACCACATGGAGGCCAATCAAA
DNA 2: TTTGATTGGCCTCCATGTGGTCTGGTCAGTTCTGTG
As to B7, the binding signal is 379 PBM fluorescence, median of replicate spots.

B8: Table S2 C row 110 (dsDNA)
DNA 1: GGATTCAACATTCCTTGTGGGCTGCTGGCCCCAGAC
DNA 2: GTCTGGGGCCAGCAGCCCACAAGGAATGTTGAATCC
B8: the binding signal is 359 PBM fluorescence, median of replicate spots.

B9: Table S2 C row 90 (dsDNA)
DNA 1: ACTGAAAATCTGCCTTGTGGCTGCTTCTGGTACACA
DNA 2: TGTGTACCAGAAGCAGCCACAAGGCAGATTTTCAGT
Take B9: the binding signal was 355 PBM fluorescence, median of replicate spots.

B10: Table S2 C row 24 (dsDNA)
DNA 1: GACGGGCGCGCGGCTTGCGGGCGGCGGGGCGCTGGG
DNA 2: CCCAGCGCCCCGCCGCCCGCAAGCCGCGCGCCCGTC
Consider B10, for which the binding signal was 371 PBM fluorescence, median of replicate spots.

B11: Table S2 C row 55 (dsDNA)
DNA 1: CTGACATTTAAGCTCACCACATGTGGGATAGTTAGT
DNA 2: ACTAACTATCCCACATGTGGTGAGCTTAAATGTCAG
On to B11, for which the binding signal is 379 PBM fluorescence, median of replicate spots.

B12: Table S2 C row 5 (dsDNA)
DNA 1: TAGTGTGAATCCCCGCCCACAGAGGGGCGGCACGTT
DNA 2: AACGTGCCGCCCCTCTGTGGGCGGGGATTCACACTA
B12: the binding signal was 372 PBM fluorescence, median of replicate spots.

B13: Table S2 C row 18 (dsDNA)
DNA 1: ACCCTCGAAGCTCTAACCACTGTGGGCTATTTTTGC
DNA 2: GCAAAAATAGCCCACAGTGGTTAGAGCTTCGAGGGT
As for B13, the binding signal is 356 PBM fluorescence, median of replicate spots.

B14: Table S2 C row 43 (dsDNA)
DNA 1: GGCTTTCCAAGCTAGTGTGGTCCACTTGCTCCCTCA
DNA 2: TGAGGGAGCAAGTGGACCACACTAGCTTGGAAAGCC
For B14, the binding signal was 378 PBM fluorescence, median of replicate spots.

B15: Table S2 C row 79 (dsDNA)
DNA 1: CCCATCAGCAGAAAAACCACAGCAAGCTTAATGTGC
DNA 2: GCACATTAAGCTTGCTGTGGTTTTTCTGCTGATGGG
On to B15, for which the binding signal is 369 PBM fluorescence, median of replicate spots.

B16: Table S2 C row 56 (dsDNA)
DNA 1: TGTCTATCGATTAAAACCACTGGTAAGAGCCATTGA
DNA 2: TCAATGGCTCTTACCAGTGGTTTTAATCGATAGACA
B16: the binding signal is 359 PBM fluorescence, median of replicate spots.

B17: Table S2 C row 40 (dsDNA)
DNA 1: CTTCACGGCTAGTTCTGTGGGTGTCCCACTTAGTTT
DNA 2: AAACTAAGTGGGACACCCACAGAACTAGCCGTGAAG
In the case of B17, the binding signal is 366 PBM fluorescence, median of replicate spots.

B18: Table S2 C row 178 (dsDNA)
DNA 1: GGCTGACTCTGTATCTGTGGGTGCTTCAGGGCCAAC
DNA 2: GTTGGCCCTGAAGCACCCACAGATACAGAGTCAGCC
Turning to B18, the binding signal was 371 PBM fluorescence, median of replicate spots.

B19: Table S2 C row 145 (dsDNA)
DNA 1: TGTGGCTGCCCTCAGACCACAAACCACCAGCCCTAT
DNA 2: ATAGGGCTGGTGGTTTGTGGTCTGAGGGCAGCCACA
Regarding B19, the binding signal was 352 PBM fluorescence, median of replicate spots.

B20: Table S2 C row 83 (dsDNA)
DNA 1: AGAACTTAAGATCTCTGTGGCTTGTGTGTGTGTGTA
DNA 2: TACACACACACACAAGCCACAGAGATCTTAAGTTCT
In the case of B20, the binding signal was 361 PBM fluorescence, median of replicate spots.

B21: Table S2 C row 190 (dsDNA)
DNA 1: TAAGAGAAAGCGCAAACCGCACAAGACCAGTTCAAA
DNA 2: TTTGAACTGGTCTTGTGCGGTTTGCGCTTTCTCTTA
For the molecule B21, the binding signal was 359 PBM fluorescence, median of replicate spots.

B22: Table S2 C row 156 (dsDNA)
DNA 1: AGGTGTGCTCTCCACCGCGGTTCACAAGGTGTCTGC
DNA 2: GCAGACACCTTGTGAACCGCGGTGGAGAGCACACCT
With B22, the binding signal was 376 PBM fluorescence, median of replicate spots.

B23: Table S2 B row 2515 (dsDNA)
DNA 1: CGGTGGCTTCCGGCCCATGGCGCTGGTTGGTGACTC
DNA 2: GAGTCACCAACCAGCGCCATGGGCCGGAAGCCACCG
B23: the binding signal is 14700 PBM fluorescence, median of replicate spots.

B24: Table S2 C row 65 (dsDNA)
DNA 1: GTCAGCTATAGTGACACCACAAGGCCTGAAGAGGGC
DNA 2: GCCCTCTTCAGGCCTTGTGGTGTCACTATAGCTGAC
Regarding B24, the binding signal was 370 PBM fluorescence, median of replicate spots.

B25: Table S2 C row 7 (dsDNA)
DNA 1: AAATAGCGCAGGTCAACCACAGACCCCAGCACTGCA
DNA 2: TGCAGTGCTGGGGTCTGTGGTTGACCTGCGCTATTT
Turning to B25, the binding signal was 355 PBM fluorescence, median of replicate spots.

B26: Table S2 C row 127 (dsDNA)
DNA 1: CCGCCCTCGGTCCCCACCGCGGAGGACTCTCTCAAG
DNA 2: CTTGAGAGAGTCCTCCGCGGTGGGGACCGAGGGCGG
In the case of B26, the binding signal was 352 PBM fluorescence, median of replicate spots.

B27: Table S2 C row 147 (dsDNA)
DNA 1: GGCCTCTGAGGAGCAGCCGCAGGAGGAGGAGGAGGT
DNA 2: ACCTCCTCCTCCTCCTGCGGCTGCTCCTCAGAGGCC
On to B27, for which the binding signal is 353 PBM fluorescence, median of replicate spots.

B28: Table S2 C row 129 (dsDNA)
DNA 1: GCAGCTGTAGAGGCCTGAGGTTTACCTAATCTGCTA
DNA 2: TAGCAGATTAGGTAAACCTCAGGCCTCTACAGCTGC
Regarding B28, the binding signal was 377 PBM fluorescence, median of replicate spots.

B29: Table S2 C row 59 (dsDNA)
DNA 1: CAGACAGTAACAAATGGTGGTTGCCGTCATGTGAAG
DNA 2: CTTCACATGACGGCAACCACCATTTGTTACTGTCTG
As for B29, the binding signal was 367 PBM fluorescence, median of replicate spots.

B30: Table S2 C row 87 (dsDNA)
DNA 1: GAATGTCTTTAAAAAACCACAGAATTGGGCTGGGCG
DNA 2: CGCCCAGCCCAATTCTGTGGTTTTTTAAAGACATTC
For the molecule B30, the binding signal was 379 PBM fluorescence, median of replicate spots.

B31: Table S2 C row 86 (dsDNA)
DNA 1: CGTCACTTCTGGAGCTGCGGTCGGGATCTGGGAGGA
DNA 2: TCCTCCCAGATCCCGACCGCAGCTCCAGAAGTGACG
As to B31, the binding signal is 360 PBM fluorescence, median of replicate spots.

B32: Table S2 C row 104 (dsDNA)
DNA 1: TCTCCCAGCGTCTGATGTGGCTTCGGTGTCAGACAT
DNA 2: ATGTCTGACACCGAAGCCACATCAGACGCTGGGAGA
Turning to B32, the binding signal was 352 PBM fluorescence, median of replicate spots.

B33: Table S2 C row 70 (dsDNA)
DNA 1: AAAGTCATTTAAGTGACCACACTTTATAGGCTTGCC
DNA 2: GGCAAGCCTATAAAGTGTGGTCACTTAAATGACTTT
Consider B33, for which the binding signal is 361 PBM fluorescence, median of replicate spots.

B34: Table S2 C row 171 (dsDNA)
DNA 1: GACTGGTGGATCACTTGAGGTCAGTTTGAGACCAGC
DNA 2: GCTGGTCTCAAACTGACCTCAAGTGATCCACCAGTC
For B34, the binding signal is 359 PBM fluorescence, median of replicate spots.

B35: Table S2 C row 102 (dsDNA)
DNA 1: GGTCAGGAGGGATGAACCACCGCTTACTCGTTCTTC
DNA 2: GAAGAACGAGTAAGCGGTGGTTCATCCCTCCTGACC
As for B35, the binding signal is 362 PBM fluorescence, median of replicate spots.

B36: Table S2 B row 1682 (dsDNA)
DNA 1: CTTGTTCTATTTCCTGTTTGTGCTGAGTGACTGTCT
DNA 2: AGACAGTCACTCAGCACAAACAGGAAATAGAACAAG
As to B36, the binding signal was 15900 PBM fluorescence, median of replicate spots.

B37: Table S2 C row 109 (dsDNA)
DNA 1: CAAGCCCAAGAACGCTGTGGTTTTTGCAGACTCATA
DNA 2: TATGAGTCTGCAAAAACCACAGCGTTCTTGGGCTTG
As for B37, the binding signal is 353 PBM fluorescence, median of replicate spots.

B38: Table S2 C row 114 (dsDNA)
DNA 1: CTCTTCCATGCAGGCTGTGGTTGCCTTCAAATACCG
DNA 2: CGGTATTTGAAGGCAACCACAGCCTGCATGGAAGAG
Regarding B38, the binding signal was 357 PBM fluorescence, median of replicate spots.

B39: Table S2 C row 124 (dsDNA)
DNA 1: CGCAGCTCCCCACTGTGCGGTTATCTAGGCCAGCAC
DNA 2: GTGCTGGCCTAGATAACCGCACAGTGGGGAGCTGCG
Take B39: the binding signal was 376 PBM fluorescence, median of replicate spots.
